Measurements taken from publication doi:10.1101/2022.06.14.496144, “Crystal structure and functional peculiarities of a primordial Orange Carotenoid Protein (OCPX)” (bioRxiv, 2022).

Target: T1, SynOCP1 lacking the N-terminal extension (ΔNTE-SynOCP1) (Synechocystis sp. PCC 6803, UniProt P74102 13-317)
T1 construct: Orange Carotenoid Protein of Synechocystis sp; PCC 6803 (Uniprot P74102) lacking residues M1-F12 from the N-terminus; also called SynOCP1 ΔNTE mutant; source: E. coli C41(DE3) synthesizing echinenone, purified (subtractive IMAC, SEC)
T1 sequence (looked up): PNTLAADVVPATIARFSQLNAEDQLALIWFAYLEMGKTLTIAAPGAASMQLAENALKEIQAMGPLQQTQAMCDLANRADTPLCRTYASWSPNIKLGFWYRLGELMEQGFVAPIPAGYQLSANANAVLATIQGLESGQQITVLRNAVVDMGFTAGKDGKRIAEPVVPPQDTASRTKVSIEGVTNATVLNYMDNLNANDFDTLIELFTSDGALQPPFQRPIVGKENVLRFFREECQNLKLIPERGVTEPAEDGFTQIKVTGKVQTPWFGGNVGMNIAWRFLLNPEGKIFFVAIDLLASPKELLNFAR
Assay: SEC; spectrochromatography on Superdex 200 Increase 5/150 with diode-array detection; ΔNTE-OCP 20 μM mixed with FRP 40 μM; 20 mM Tris-HCl pH 7.6, 150 mM NaCl; absorbance spectrum ('oranging') read in the same runs
Details: both partners purified

B1: Fluorescence Recovery Protein from Synechocystis (SynFRP) (natural protein, UniProt P74103 1-109, looked up)
chain: MLQTAEAPWSQAETQSAHALFRKAYQRELDGLLATVQAQASQITQIDDLWKLHDFLSAKRHEIDGKYDDRQSVIIFVFAQLLKEGLVQAEELTFLAADKQSKIKALARL
notes: Fluorescence Recovery Protein of Synechocystis (Uniprot P74103); source: E. coli C41(DE3), purified (subtractive IMAC, SEC)
binding result: binds
